Experimental data from patent US7745574B2, “Compounds that regulate apoptosis” (The Burnham Institute, priority 2005, dated 2010).
“Also recorded” adds a separate entry of the source. Where no end group is shown, it is not given here. [ ]: non-standard residue; d: D form. Ahx = NCCCCCC(=O)O

Key:
[1] = Induction of apoptosis by Nur77 peptides, cell line not stated; type: cell-based
Description: Apoptosis assays—For nuclear morphological change analysis, cells were trypsinized, washed with PBS, fixed with 3.7% paraformaldehyde, and stained with DAPI (4,6-diamidino-2-phenylindole) (50 μg/ml) to visualize the nuclei by UV-microscopy. The percentages of apoptotic cells were determined by counting 300 GFP-positive cells, scoring cells having nuclear fragmentation and/or chromatin condensation.

Bcl-B = biological target: T1, Bcl-B (Homo sapiens, UniProt Q9HD36); test: Co-immunoprecipitation with myc-tagged Bcl-B in HEK293T cells; type: binding
T1 construct: expressed in transfected cells; host or cells: HEK293T
T1 sequence (Q9HD36 1-204): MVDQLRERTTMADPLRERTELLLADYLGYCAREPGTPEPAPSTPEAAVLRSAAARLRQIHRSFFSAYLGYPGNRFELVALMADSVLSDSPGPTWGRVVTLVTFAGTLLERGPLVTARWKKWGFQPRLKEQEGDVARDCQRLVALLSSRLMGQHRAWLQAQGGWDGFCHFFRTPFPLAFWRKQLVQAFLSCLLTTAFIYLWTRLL
Description: (§1) Nur77 peptide binds anti-apoptotic Bcl-2 family members. Nur77-peptide binds Bcl-B, Bfl-1, and Bcl-2, but not Mcl-1 and Bcl-xL. […] The expression vector for the GFP-Nur77/489-497 fusion was transfected into HEK293T cells together with or without the indicated expression vector for myc-tagged Bcl-2 family member. Cell lysates were prepared and analyzed for interaction of Nur77/489-497 with Bcl-2 family members by co-immunoprecipitation assay using anti-Myc antibody. Immunoprecipitates were then separated on SDS/PAGE and immunoblotted using anti-GFP antibody. […] Nur77/Bcl-2 interaction assays—Reporter gene assays using NurRE-tk-CAT in CV-1 cells, and GST pull-down assay were described previously (Li, et al. 2000 Science 289:1159-1164). For the mammalian two-hybrid assays, CV-1 cells were co-transfected with pcDNA-Gal4TAD-Nur77 or pcDNA-Gal4TAD-Nur77/ΔDBD and pcDNA-Gal4 DBD-Bcl-2/ΔTM along with a luciferase reporter gene driven by four copies of the Gal-4-binding site. The cells were harvested and reporter gene activity was measured. […] Immunoreactive products were detected by chemiluminescence with an enhanced chemiluminescence system (ECL) (Amersham).

Bfl-1 = biological target: T2, Bfl-1 (Homo sapiens, UniProt Q16548); test: Co-immunoprecipitation with myc-tagged Bfl-1 in HEK293T cells; type: binding
T2 construct: expressed in transfected cells; host or cells: HEK293T
T2 sequence (Q16548 1-175): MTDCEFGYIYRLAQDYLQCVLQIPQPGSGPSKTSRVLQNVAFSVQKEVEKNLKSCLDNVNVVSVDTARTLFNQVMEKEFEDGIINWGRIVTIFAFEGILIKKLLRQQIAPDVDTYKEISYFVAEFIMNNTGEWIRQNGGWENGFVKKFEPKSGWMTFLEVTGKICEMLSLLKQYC
Description: as §1

Bcl-XL = Bcl-XL (Homo sapiens, UniProt Q07817); test: Co-immunoprecipitation with myc-tagged Bcl-XL in HEK293T cells; type: binding
Description: as §1

Mcl-1 = Mcl-1 (Homo sapiens, UniProt Q07820); test: Co-immunoprecipitation with myc-tagged Mcl-1 in HEK293T cells; type: binding
Description: as §1

mitochondria = test: Subcellular localization, colocalization with RFP-Mito; type: cell-based
Description: Subcellular localization assays—Cells were seeded onto cover-slips in 6-well plates overnight, then transiently transfected with GFP-fusion expression plasmids. After 16 hours, cells were washed with PBS and fixed in 4% paraformaldehyde. […] For cyt c staining, cells were incubated with monoclonal anti-cyt c IgG (PharMingen), followed by anti-mouse IgG conjugated with Cy5 (Amersham). Fluorescent images were collected and analyzed using a MRC-1024 MP laser-scanning confocal microscope (Bio-Rad). Subcellular fractionation assays were performed as described (Li, et al. 2000 Science 289:1159-1164). Briefly, cells (1×10^7 cells) suspended in 0.5 ml hypotonic buffer (5 mM Tris-HCl, pH 7.4, 5 mM KCl, 1.5 mM MgCl2, 0.1 mM EGTA, pH 8.0, and 1 mM DTT) were homogenized and cell extracts were centrifuged at 500×g for 5 min. The resulting supernatant was centrifuged at 10,000×g for 30 min at 4° C. to obtain the HM fraction. HM fraction was resuspended in 100 μl lysis buffer (10 mM Tris, pH 7.4, 150 mM NaCl, 1% Triton X-100, 5 mM EDTA, pH 8.0) for immunoblotting analysis.

Bcl-2 [2] = biological target: T3, Bcl-2 (Homo sapiens, UniProt P10415); test: Co-immunoprecipitation with Bcl-2 in HEK293T cells; type: binding; design: expressed in transfected cells; host or cells: HEK293T
Description: as §1, with “measured. For Co-IP assays, HEK293T cells were transiently transfected with various expression plasmids using a modified calcium phosphate precipitation method (Wu et al, 1997) in the presence of caspase inhibitors (zVAD-fmk) to prevent degradation of Nur77 protein due to apoptosis. Cells were suspended in lysis buffer (50 mM Tris-HCl, PH7.4; 150 mM NaCl; 20 mM EDTA; 1% NP-40; 1 mM PMSF; 50 μg/ml Leupeptin; […]; 0.1 mM Na3VO4; and 1 mM DTT). Cells extracts were cleared by incubation with the Protein A/G plus Agarose beads (Santa Cruz) and then incubated with appropriate antibody and 30 μl of Protein A or G plus Agarose beads overnight at 4° C.” for “measured.”
Target sequence in this assay (P10415 whole entry): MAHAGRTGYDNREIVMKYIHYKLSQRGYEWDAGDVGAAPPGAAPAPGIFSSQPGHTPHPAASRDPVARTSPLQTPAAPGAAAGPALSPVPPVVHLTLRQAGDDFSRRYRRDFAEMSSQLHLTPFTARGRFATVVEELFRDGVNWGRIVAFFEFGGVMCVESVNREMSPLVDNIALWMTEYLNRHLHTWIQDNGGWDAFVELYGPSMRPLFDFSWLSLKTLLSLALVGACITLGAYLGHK

H460 lung cancer cells [3] = test: Apoptosis in H460 lung cancer cells; type: cell-based
Description: Bcl-2 siRNAs and antisense oligonucleotides-The target siRNA SMARTpools for Bcl-2 and Bak and the siRNA oligonucleotide for Nur77 (5'-[…] NO: 67) were purchased from Dharmacon Research Inc. Target or control siRNA were transfected at a final concentration of 200 nM into cells at 40% confluency using Oligofectamine reagent (Invitrogen) according to the manufacturer's recommendations. After 48 h, cells were analyzed. Bcl-2 antisense oligonucleotide targeting Bcl-2 and negative control oligonucleotides were obtained from Calbiochem. […] The percentages of apoptotic cells were determined by counting 300 GFP-positive cells, scoring cells having nuclear fragmentation and/or chromatin condensation. Cell culture. […] HEK293T embryonic kidney cells were grown in DME medium supplemented with 10% FBS. Jurkat and Jurkat cells stably expressing Bcl-2 were kindly provided by Dr. John Reed, and they were maintained in RPMI1640 medium.

GST-Bcl-2 = biological target: T4, GST-Bcl-2 (Homo sapiens, UniProt P10415); test: Immunoprecipitation of purified GST-Bcl-2 by anti-Bcl-2/BH3 antibody; type: biochemical
T4 construct: made in house

[4] = system: MDA-MB435 breast carcinoma cells; test: MDA-MB435 tumors in SCID mice; type: in vivo
Description: Animal studies. Female SCID mice (6-week-old) (Tacomic) were injected with 10^6 MDA-MB435 breast carcinoma cells. Tumors were palpable on day 7. On days 10 and 13, test peptides (620 μg in 50 μL PBS) were injected into the tumor areas of 5 mice. Tumor volumes (1×w^2) were determined using calipers. No weight changes were observed. Established tumors in control mice were injected with test peptides and tumor tissues were excised and sectioned after 3 days. Tissues were fixed (10% buffered formalin), then rapidly paraffin-embedded. Apoptosis was detected by the TUNEL assay.

H460 lung cancer cells [5] = test: Apoptosis in H460 lung cancer cells; type: cell-based; settings: H460 cells; peptides conjugated with CPP, 10 μM
Bcl-2 [6] = biological target: T3, Bcl-2; test: Competition assay of Nur77/ΔDBD binding with Bcl-2; design: expressed in transfected cells; host or cells: HEK293T
Description: Nur77/Bcl-2 interaction assays—Reporter gene assays using NurRE-tk-CAT in CV-1 cells, and GST pull-down assay were described previously (Li, et al. 2000 Science 289:1159-1164). For the mammalian two-hybrid assays, CV-1 cells were co-transfected with pcDNA-Gal4TAD-Nur77 or pcDNA-Gal4TAD-Nur77/ΔDBD and pcDNA-Gal4 DBD-Bcl-2/ΔTM along with a luciferase reporter gene driven by four copies of the Gal-4-binding site. The cells were harvested and reporter gene activity was measured. For Co-IP assays, HEK293T cells were transiently transfected with various expression plasmids using a modified calcium phosphate precipitation method (Wu et al, 1997) in the presence of caspase inhibitors (zVAD-fmk) to prevent degradation of Nur77 protein due to apoptosis. Cells were suspended in lysis buffer (50 mM Tris-HCl, PH7.4; 150 mM NaCl; 20 mM EDTA; 1% NP-40; 1 mM PMSF; 50 μg/ml Leupeptin; […] Aprotinin; 0.1 mM Na3VO4; and 1 mM DTT). Cells extracts were cleared by incubation with the Protein A/G plus Agarose beads (Santa Cruz) and then incubated with appropriate antibody and 30 μl of Protein A or G plus Agarose beads overnight at 4° C. […] Immunoreactive products were detected by chemiluminescence with an enhanced chemiluminescence system (ECL) (Amersham).
Target sequence in this assay (P10415 whole entry): as above

Bcl-2 [7] = biological target: T3, Bcl-2; test: Bcl-2 conformational change, anti-Bcl-2/BH3 antibody staining of HEK293T cells transfected with Bcl-2; type: cell-based; design: expressed in transfected cells; host or cells: HEK293T
Description: Such a Bcl-2 conformation is recognized by an anti-Bcl-2 antibody raised against the Bcl-2 BH3 domain. To determine whether NuBCP-9 induced a Bcl-2 conformational change, flow cytometric assays were conducted which HEK293T cells transfected with Bcl-2 were exposed to NuBCPs and subsequently stained with the anti-Bcl-2/BH3 antibody.
Target sequence in this assay (P10415 whole entry): as above

Bcl-2 [8] = biological target: T3, Bcl-2; test: Immunoprecipitation of endogenous Bcl-2 by anti-Bcl-2/BH3 antibody in treated cells; type: cell-based; design: precipitated endogenous Bcl-2 in cells treated with L-NuBCP-9-r8 or D-NuBCP-9-r8; endogenous in cells
Target sequence in this assay (P10415 whole entry, species assumed): as the sequence (P10415 whole entry) above

Bcl-XL, sequence (Q07817 whole entry, species assumed): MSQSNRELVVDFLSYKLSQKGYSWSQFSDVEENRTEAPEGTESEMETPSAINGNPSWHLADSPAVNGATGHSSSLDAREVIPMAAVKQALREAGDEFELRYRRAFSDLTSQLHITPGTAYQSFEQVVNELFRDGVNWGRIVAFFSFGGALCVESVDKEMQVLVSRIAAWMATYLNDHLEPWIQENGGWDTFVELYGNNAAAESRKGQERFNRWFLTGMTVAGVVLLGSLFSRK
T4 sequence (P10415 whole entry): as the sequence (P10415 whole entry) above
Mcl-1, sequence (Q07820 whole entry, species assumed): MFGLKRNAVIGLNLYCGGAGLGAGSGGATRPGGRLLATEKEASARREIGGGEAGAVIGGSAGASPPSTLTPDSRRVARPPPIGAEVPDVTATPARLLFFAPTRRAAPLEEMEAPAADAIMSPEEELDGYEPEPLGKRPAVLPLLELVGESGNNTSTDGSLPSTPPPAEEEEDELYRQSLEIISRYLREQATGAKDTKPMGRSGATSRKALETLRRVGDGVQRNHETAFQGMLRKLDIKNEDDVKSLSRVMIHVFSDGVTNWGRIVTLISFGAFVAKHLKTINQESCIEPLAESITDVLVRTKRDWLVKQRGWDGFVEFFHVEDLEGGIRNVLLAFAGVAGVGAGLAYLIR

Substance	induction of apoptosis [1]	interaction with Bcl-B by co-immunoprecipitation (Bcl-B)	interaction with Bfl-1 by co-immunoprecipitation (Bfl-1)	interaction with Bcl-XL by co-immunoprecipitation (Bcl-XL)	interaction with Mcl-1 by co-immunoprecipitation (Mcl-1)	colocalization with RFP-Mito (mitochondria)	interaction with Bcl-2 by co-immunoprecipitation (Bcl-2 [2])	apoptotic function after Bcl-2 antisense oligonucleotides (H460 lung cancer cells [3]; Bcl-2 antisense oligonucleotides)	apoptotic effect after transfection of Bcl-2 siRNA (H460 lung cancer cells [3]; H460 cells, Bcl-2 siRNA vs control GFP siRNA)	precipitation of GST-Bcl-2 protein by anti-Bcl-2/BH3 antibody (GST-Bcl-2)	growth of tumors ([4]; SCID mice, 620 μg injected into tumor areas on days 10 and 13, vs control NuBCP-9/AA-r8)	apoptosis of tumor cells in vivo ([4]; TUNEL assay)	apoptotic effect (H460 lung cancer cells [5])	binding of Nur77/ΔDBD with Bcl-2 in presence of peptide (Bcl-2 [6])	Bcl-2 immunofluorescence by anti-Bcl-2/BH3 antibody (Bcl-2 [7]; flow cytometry)	Bcl-2 staining by anti-Bcl-2/BH3 antibody (Bcl-2 [7]; fluorescence microscopy)	Bcl-2 immunofluorescence in the presence of caspase inhibitor zVAD (Bcl-2 [7]; zVAD present)	precipitation of endogenous Bcl-2 by anti-Bcl-2/BH3 antibody (Bcl-2 [8])
GFP-Nur77/489-497: NuBCP-9 (Nur77/489-497) sequence cloned as a green fluorescence protein (GFP) fusion (FSRSLHSLL; also: fused to GFP)	apoptotic	interacts	interacts	not	not	colocalized extensively	precipitated by anti-Bcl-2 antibody only when Bcl-2 was co-expressed; also recorded: interacts											
acetyl------------FSRSLHSLLGXrrrrrrrr-amide (Ac-FSRSLHSLLG[Ahx][dR][dR][dR][dR][dR][dR][dR][dR]-NH2; SMILES CC(=O)N[C@@H](Cc1ccccc1)C(=O)N[C@@H](CO)C(=O)N[C@@H](CCCNC(=N)N)C(=O)N[C@@H](CO)C(=O)N[C@@H](CC(C)C)C(=O)N[C@@H](Cc1c[nH]cn1)C(=O)N[C@@H](CO)C(=O)N[C@@H](CC(C)C)C(=O)N[C@@H](CC(C)C)C(=O)NCC(=O)NCCCCCC(=O)N[C@H](CCCNC(=N)N)C(=O)N[C@H](CCCNC(=N)N)C(=O)N[C@H](CCCNC(=N)N)C(=O)N[C@H](CCCNC(=N)N)C(=O)N[C@H](CCCNC(=N)N)C(=O)N[C@H](CCCNC(=N)N)C(=O)N[C@H](CCCNC(=N)N)C(=O)N[C@H](CCCNC(=N)N)C(N)=O) [NuBCP-9-r8]								attenuated	inhibited	strong precipitation	dramatically suppressed	potently induced	potently induce apoptosis	abrogated	strong Bcl-2 immunofluorescence	strongly stained	observed	precipitated
